B1: CE115HA000 H35K one-arm antibody (antibody, human IgG1, kappa, L234A L235A, N297A, name in Kabat numbering)
heavy: QVQLVESGGGVVQPGRSLRLSCAASGFTFSNAWMKWVRQAPGKGLEWVAQIKAKSNNYATYYAESVKGRFTISRDDSKNSLYLQMNSLKTEDTAVYYCRYVHYGAYYGVDAWGQGTTVTVSSASTKGPSVFPLAPSSKSTSGGTAALGCLVKDYFPEPVTVSWNSGALTSGVHTFPAVLQSSGLYSLSSVVTVPSSSLGTQTYICNVNHKPSNTKVDKKVEPKSCDKTHTCPPCPAPEAAGGPSVFLFPPKPKDTLMISRTPEVTCVVVDVSHEDPEVKFNWYVDGVEVHNAKTKPREEQYASTYRVVSVLTVLHQDWLNGKEYKCKVSNKALPAPIEKTISKAKGQPREPQVYTLPPSRCELTKNQVSLSCAVKGFYPSDIAVEWESNGQPENNYKTTPPVLDSDGSFFLVSKLTVDKSRWQQGNVFSCSVMHEALHNHYTQKSLSLSPDYKDDDDK
chain: EPKSSDKTHTCPPCPAPELLGGPSVFLFPPKPKDTLMISRTPEVTCVVVDVSHEDPEVKFNWYVDGVEVHNAKTKPREEQYNSTYRVVSVLTVLHQDWLNGKEYKCKVSNKALPAPIEKTISKAKGQPREPQVCTLPPSRDELTKNQVSLWCLVKGFYPSDIAVEWESNGQPENNYKTTPPVLDSDGSFFLYSKLTVDKSRWQQGNVFSCSVMHEALHNRYTQKSLSLSP
light: DIVMTQSPLSLPVTPGEPASISCRSSQSLVHSNRNTYLHWYQQKPGQAPRLLIYKVSNRFSGVPDRFSGSGSGTDFTLKISRVEAEDVGVYYCGQGTQVPYTFGQGTKLEIKRTVAAPSVFIFPPSDEQLKSGTASVVCLLNNFYPREAKVQWKVDNALQSGNSQESVTEQDSKDSTYSLSSTLTLSKADYEKHKVYACEVTHQGLSSPVTKSFNRGEC
B2: CE115HA000 H35L one-arm antibody (antibody, human IgG1, kappa, L234A L235A, N297A, name in Kabat numbering)
heavy: QVQLVESGGGVVQPGRSLRLSCAASGFTFSNAWMLWVRQAPGKGLEWVAQIKAKSNNYATYYAESVKGRFTISRDDSKNSLYLQMNSLKTEDTAVYYCRYVHYGAYYGVDAWGQGTTVTVSSASTKGPSVFPLAPSSKSTSGGTAALGCLVKDYFPEPVTVSWNSGALTSGVHTFPAVLQSSGLYSLSSVVTVPSSSLGTQTYICNVNHKPSNTKVDKKVEPKSCDKTHTCPPCPAPEAAGGPSVFLFPPKPKDTLMISRTPEVTCVVVDVSHEDPEVKFNWYVDGVEVHNAKTKPREEQYASTYRVVSVLTVLHQDWLNGKEYKCKVSNKALPAPIEKTISKAKGQPREPQVYTLPPSRCELTKNQVSLSCAVKGFYPSDIAVEWESNGQPENNYKTTPPVLDSDGSFFLVSKLTVDKSRWQQGNVFSCSVMHEALHNHYTQKSLSLSPDYKDDDDK
chain: EPKSSDKTHTCPPCPAPELLGGPSVFLFPPKPKDTLMISRTPEVTCVVVDVSHEDPEVKFNWYVDGVEVHNAKTKPREEQYNSTYRVVSVLTVLHQDWLNGKEYKCKVSNKALPAPIEKTISKAKGQPREPQVCTLPPSRDELTKNQVSLWCLVKGFYPSDIAVEWESNGQPENNYKTTPPVLDSDGSFFLYSKLTVDKSRWQQGNVFSCSVMHEALHNRYTQKSLSLSP
light: DIVMTQSPLSLPVTPGEPASISCRSSQSLVHSNRNTYLHWYQQKPGQAPRLLIYKVSNRFSGVPDRFSGSGSGTDFTLKISRVEAEDVGVYYCGQGTQVPYTFGQGTKLEIKRTVAAPSVFIFPPSDEQLKSGTASVVCLLNNFYPREAKVQWKVDNALQSGNSQESVTEQDSKDSTYSLSSTLTLSKADYEKHKVYACEVTHQGLSSPVTKSFNRGEC
B3: CE115HA000 H35M one-arm antibody (antibody, human IgG1, kappa, L234A L235A, N297A, name in Kabat numbering)
heavy: QVQLVESGGGVVQPGRSLRLSCAASGFTFSNAWMMWVRQAPGKGLEWVAQIKAKSNNYATYYAESVKGRFTISRDDSKNSLYLQMNSLKTEDTAVYYCRYVHYGAYYGVDAWGQGTTVTVSSASTKGPSVFPLAPSSKSTSGGTAALGCLVKDYFPEPVTVSWNSGALTSGVHTFPAVLQSSGLYSLSSVVTVPSSSLGTQTYICNVNHKPSNTKVDKKVEPKSCDKTHTCPPCPAPEAAGGPSVFLFPPKPKDTLMISRTPEVTCVVVDVSHEDPEVKFNWYVDGVEVHNAKTKPREEQYASTYRVVSVLTVLHQDWLNGKEYKCKVSNKALPAPIEKTISKAKGQPREPQVYTLPPSRCELTKNQVSLSCAVKGFYPSDIAVEWESNGQPENNYKTTPPVLDSDGSFFLVSKLTVDKSRWQQGNVFSCSVMHEALHNHYTQKSLSLSPDYKDDDDK
chain: EPKSSDKTHTCPPCPAPELLGGPSVFLFPPKPKDTLMISRTPEVTCVVVDVSHEDPEVKFNWYVDGVEVHNAKTKPREEQYNSTYRVVSVLTVLHQDWLNGKEYKCKVSNKALPAPIEKTISKAKGQPREPQVCTLPPSRDELTKNQVSLWCLVKGFYPSDIAVEWESNGQPENNYKTTPPVLDSDGSFFLYSKLTVDKSRWQQGNVFSCSVMHEALHNRYTQKSLSLSP
light: DIVMTQSPLSLPVTPGEPASISCRSSQSLVHSNRNTYLHWYQQKPGQAPRLLIYKVSNRFSGVPDRFSGSGSGTDFTLKISRVEAEDVGVYYCGQGTQVPYTFGQGTKLEIKRTVAAPSVFIFPPSDEQLKSGTASVVCLLNNFYPREAKVQWKVDNALQSGNSQESVTEQDSKDSTYSLSSTLTLSKADYEKHKVYACEVTHQGLSSPVTKSFNRGEC
B4: CE115HA000 H35N one-arm antibody (antibody, human IgG1, kappa, L234A L235A, N297A, name in Kabat numbering)
heavy: QVQLVESGGGVVQPGRSLRLSCAASGFTFSNAWMNWVRQAPGKGLEWVAQIKAKSNNYATYYAESVKGRFTISRDDSKNSLYLQMNSLKTEDTAVYYCRYVHYGAYYGVDAWGQGTTVTVSSASTKGPSVFPLAPSSKSTSGGTAALGCLVKDYFPEPVTVSWNSGALTSGVHTFPAVLQSSGLYSLSSVVTVPSSSLGTQTYICNVNHKPSNTKVDKKVEPKSCDKTHTCPPCPAPEAAGGPSVFLFPPKPKDTLMISRTPEVTCVVVDVSHEDPEVKFNWYVDGVEVHNAKTKPREEQYASTYRVVSVLTVLHQDWLNGKEYKCKVSNKALPAPIEKTISKAKGQPREPQVYTLPPSRCELTKNQVSLSCAVKGFYPSDIAVEWESNGQPENNYKTTPPVLDSDGSFFLVSKLTVDKSRWQQGNVFSCSVMHEALHNHYTQKSLSLSPDYKDDDDK
chain: EPKSSDKTHTCPPCPAPELLGGPSVFLFPPKPKDTLMISRTPEVTCVVVDVSHEDPEVKFNWYVDGVEVHNAKTKPREEQYNSTYRVVSVLTVLHQDWLNGKEYKCKVSNKALPAPIEKTISKAKGQPREPQVCTLPPSRDELTKNQVSLWCLVKGFYPSDIAVEWESNGQPENNYKTTPPVLDSDGSFFLYSKLTVDKSRWQQGNVFSCSVMHEALHNRYTQKSLSLSP
light: DIVMTQSPLSLPVTPGEPASISCRSSQSLVHSNRNTYLHWYQQKPGQAPRLLIYKVSNRFSGVPDRFSGSGSGTDFTLKISRVEAEDVGVYYCGQGTQVPYTFGQGTKLEIKRTVAAPSVFIFPPSDEQLKSGTASVVCLLNNFYPREAKVQWKVDNALQSGNSQESVTEQDSKDSTYSLSSTLTLSKADYEKHKVYACEVTHQGLSSPVTKSFNRGEC

target: T1, CD3 epsilon homodimer protein (UniProt P07766 23-126); assay: SPR (Biacore T200), CD3 epsilon homodimer on CM4 chip, one-arm antibody as analyte, 25 C;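 further: homodimer attached to the sensor surface via amine coupling, HBS-EP+ used as running buffer during binding runs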
T1 construct: immobilized on Sensor chip CM4 by amine coupling; also called CD3 (CD3 epsilon)
T1 sequence (P07766 23-126): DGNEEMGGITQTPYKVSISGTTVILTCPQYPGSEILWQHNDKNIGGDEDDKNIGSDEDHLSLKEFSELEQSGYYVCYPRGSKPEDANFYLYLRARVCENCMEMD

In order of rising “ratio of amounts bound (altered form / CE115HA000)” value:
1. B2  0.11
2. B1  0.15
3. B3  0.29
4. B4  0.35
